Measured values: patent US20260234280A1
pEC50, pKd: −log10 of the molar value.

What was measured:
[1] = target: cynomolgus monkey CD3 recombinant protein (Acro, Cat. No. CDD-C52W4) (cynomolgus monkey) (UniProt Q95LI5); experiment: SPR (Biacore), CD3 immobilised on CM5 chip, antibody as analyte, 1:1 model
[2] = target: human CD3 recombinant protein (Acro, Cat. No. CDD-H52W1) (human) (UniProt P07766); experiment: as above
[3] = target: human BCMA (human-BCMA) (human) (UniProt Q02223); experiment: cell-based or functional assay
Sequence of human BCMA (human-BCMA) (human) (Q02223 whole entry): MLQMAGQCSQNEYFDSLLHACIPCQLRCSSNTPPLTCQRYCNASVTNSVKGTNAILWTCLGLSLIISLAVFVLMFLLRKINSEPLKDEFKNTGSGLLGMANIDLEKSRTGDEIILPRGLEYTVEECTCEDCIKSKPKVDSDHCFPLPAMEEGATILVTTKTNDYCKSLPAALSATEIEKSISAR

soluble BCMA = soluble BCMA (UniProt Q02223); experiment: cell-based or functional assay
Sequence of soluble BCMA (Q02223 1-54 limits assumed): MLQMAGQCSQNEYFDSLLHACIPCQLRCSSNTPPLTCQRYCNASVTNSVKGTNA

[4] = target: cynomolgus monkey CD3 naturally expressed on cyno PBMCs (cynomolgus monkey) (UniProt Q95LI5); experiment: flow cytometry (FACS), cyno PBMCs
Sequence of cynomolgus monkey CD3 naturally expressed on cyno PBMCs (cynomolgus monkey) (Q95LI5 22-198): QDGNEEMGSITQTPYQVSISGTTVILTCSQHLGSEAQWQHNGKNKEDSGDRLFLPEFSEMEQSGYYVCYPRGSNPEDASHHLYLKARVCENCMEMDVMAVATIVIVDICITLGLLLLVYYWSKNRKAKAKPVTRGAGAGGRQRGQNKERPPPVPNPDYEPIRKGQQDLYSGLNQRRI

[5] = target: human CD3 naturally expressed on Jurkat T lymphocytes and human PBMCs (human) (UniProt P07766); experiment: flow cytometry (FACS), human PBMCs
Sequence of human CD3 naturally expressed on Jurkat T lymphocytes and human PBMCs (human) (P07766 23-207): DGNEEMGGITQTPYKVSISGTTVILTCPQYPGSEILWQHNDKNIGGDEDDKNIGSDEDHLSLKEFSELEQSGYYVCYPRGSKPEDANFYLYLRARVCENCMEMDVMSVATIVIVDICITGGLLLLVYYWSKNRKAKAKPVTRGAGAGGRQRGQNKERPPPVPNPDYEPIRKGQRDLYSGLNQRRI

[6] = target: human CD3 naturally expressed on Jurkat T lymphocytes and human PBMCs (human) (UniProt P07766); experiment: flow cytometry (FACS), Jurkat cells
[7] = target: human BCMA (human-BCMA) (human) (UniProt Q02223); experiment: flow cytometry (FACS), NCI-H929 cells
[8] = target: human BCMA (human-BCMA) (human) (UniProt Q02223); experiment: flow cytometry (FACS), RPMI8226 cells
[9] = target: human BCMA (human-BCMA) (human) (UniProt Q02223); experiment: flow cytometry (FACS), human BCMA-CHOK1 cells
[10] = target: human GPRC5D (human-GPRC5D) (human) (UniProt Q9NZD1); experiment: flow cytometry (FACS), human GPRC5D-CHOK1 cells
Sequence of human GPRC5D (human-GPRC5D) (human) (Q9NZD1 whole entry): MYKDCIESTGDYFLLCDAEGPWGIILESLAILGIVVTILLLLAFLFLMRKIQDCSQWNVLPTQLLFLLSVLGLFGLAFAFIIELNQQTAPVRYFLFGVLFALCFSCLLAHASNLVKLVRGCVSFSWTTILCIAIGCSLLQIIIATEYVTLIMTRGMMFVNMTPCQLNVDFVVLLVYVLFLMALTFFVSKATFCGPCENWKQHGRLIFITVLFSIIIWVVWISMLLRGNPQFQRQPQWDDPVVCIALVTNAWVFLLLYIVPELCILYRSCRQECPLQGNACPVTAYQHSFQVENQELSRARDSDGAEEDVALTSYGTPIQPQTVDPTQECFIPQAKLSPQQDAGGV

[11] = target: cynomolgus monkey BCMA (cyno-BCMA) (cynomolgus monkey); experiment: flow cytometry (FACS), cynomolgus monkey BCMA-CHOK1 cells
Sequence of cynomolgus monkey BCMA (cyno-BCMA) (cynomolgus monkey) (Q02223 other isoform, or with tags, fused parts or gaps): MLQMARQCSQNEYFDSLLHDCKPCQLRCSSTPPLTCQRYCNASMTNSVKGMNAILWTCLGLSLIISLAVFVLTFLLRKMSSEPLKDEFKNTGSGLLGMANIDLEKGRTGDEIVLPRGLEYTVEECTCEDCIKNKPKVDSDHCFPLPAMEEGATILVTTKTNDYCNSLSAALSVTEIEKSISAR

[12] = target: cynomolgus monkey BCMA recombinant protein (Acro, Cat. No. BCA-C52H7) (cynomolgus monkey); experiment: SPR (Biacore), antibody captured by anti-human IgG (Fc) on CM5 chip, BCMA as analyte, 1:1 model
[13] = target: human BCMA recombinant protein (Acro, Cat. No. BCA-H522y) (human) (UniProt Q02223); experiment: as above
Sequence of human BCMA recombinant protein (Acro, Cat. No. BCA-H522y) (human) (Q02223 1-54 limits assumed): as the sequence (Q02223 1-54 limits assumed) above

[14] = target: human BCMA and human GPRC5D, the dual targets expressed on NCI-H929 and RPMI8226 tumor cells; experiment: flow cytometry (FACS), NCI-H929 cells
[15] = target: human BCMA and human GPRC5D, the dual targets expressed on NCI-H929 and RPMI8226 tumor cells; experiment: flow cytometry (FACS), RPMI8226 cells

Sequence of human CD3 recombinant protein (Acro, Cat. No. CDD-H52W1) (human) (P07766 23-126): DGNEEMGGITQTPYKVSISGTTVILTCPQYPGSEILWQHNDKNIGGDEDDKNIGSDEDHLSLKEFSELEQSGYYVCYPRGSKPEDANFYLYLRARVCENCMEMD
Sequence of cynomolgus monkey CD3 recombinant protein (Acro, Cat. No. CDD-C52W4) (cynomolgus monkey) (Q95LI5 22-117): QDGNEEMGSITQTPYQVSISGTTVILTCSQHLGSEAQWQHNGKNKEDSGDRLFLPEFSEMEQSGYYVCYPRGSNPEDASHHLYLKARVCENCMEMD

Substance: Talquetamab analogue (GPRC5D/CD3), GPRC5DxCD3 bispecific antibody from Janssen
- pKd [1]: 7.65
- koff [1]: 0.00379 s⁻¹
- kon [1]: 170000 M⁻¹ s⁻¹
- pKd [2]: 7.74
- koff [2]: 0.00201 s⁻¹
- kon [2]: 112000 M⁻¹ s⁻¹

Substance: Teclistamab analogue (BCMA/CD3), BCMAxCD3 bispecific antibody from Janssen
- TDCC Cytotoxicity (max) on NCI-H929 with 0 ug/ml BCMA [3]: 40.9
- TDCC EC50 (nM) on NCI-H929 with 0 ug/ml BCMA [3]: 0.115 nM
- Ratio (EC50), TDCC on NCI-H929 with 2.5 ug/ml against 0 ug/ml BCMA (soluble BCMA): 21
- TDCC Cytotoxicity (max) on NCI-H929 with 2.5 ug/ml BCMA (soluble BCMA): 53.9
- TDCC EC50 (nM) on NCI-H929 with 2.5 ug/ml BCMA (soluble BCMA): 2.36 nM
- fold change of TDCC EC50 on NCI-H929 in the presence of 2500 ng/ml soluble BCMA (soluble BCMA): 25 fold
- pEC50 [4]: 7.25
- Top MFI [4]: 2060 MFI
- pEC50 [5]: 8.22
- Top MFI [5]: 672 MFI
- pEC50 [6]: 8.49
- Top MFI [6]: 825 MFI
- pEC50 [7]: 8.61
- Top MFI [7]: 669 MFI
- pEC50 [8]: 8.93
- Top MFI [8]: 169 MFI
- pEC50 [9]: 8.58
- Top MFI [9]: 2280 MFI
- Top MFI [10]: 160 MFI
- pEC50 [11]: 7.81
- Top MFI [11]: 1770 MFI
- pKd [1]: 7.68
- koff [1]: 0.00336 s⁻¹
- kon [1]: 159000 M⁻¹ s⁻¹
- pKd [2]: 7.68
- koff [2]: 0.00522 s⁻¹
- kon [2]: 248000 M⁻¹ s⁻¹
- pKd [12]: 8.07
- koff [12]: 0.0235 s⁻¹
- kon [12]: 2.77e+06 M⁻¹ s⁻¹
- pKd [13]: 9.42
- koff [13]: 0.00135 s⁻¹
- kon [13]: 3.55e+06 M⁻¹ s⁻¹

Substance: hIgG1 LALA isotype (Biointron, Cat. No. B109802) (antibody)
- Top MFI [14]: 104 MFI
- Top MFI [15]: 112 MFI
